Patent US20090280138A1 (OXFORD BIOMEDICA UK, published 2009)

Tests used:
Assay in all cases: iTopia peptide binding assay
[1] = molecular target: T1, MHC class I allele A*0201 (bound via biotin to streptavidin-coated plate)
T1 construct: iTopia MHC class I monomer on the plate; placeholder peptide and b2M removed, then reconstituted with test peptide and fresh b2M; also called A2; HLA A2
Experimental: (§1) The 9 mers were tested for Peptide Binding, Off Rate and Affinity using iTopia Epitope Discovery System in accordance with the manufacturer's instructions. Briefly, 96 well microtitre plates coated with MHC molecules representing different MHC alleles are used to identify candidate peptides. […] Determinations are performed in duplicate using an ELISA plate reader and included allele specific positive controls.
(§2) i) Peptide Binding—This assay measures the ability of individual peptides to bind to the MHC molecules under standardized optimal binding conditions. The assay is performed for all the test peptides across the selected MHC alleles. The test peptides identified as “binders” are characterized further in terms of affinity and dissociation experiments.

[2] = molecular target: T2, MHC class I allele A*0101 (bound via biotin to streptavidin-coated plate)
T2 construct: iTopia MHC class I monomer on the plate; placeholder peptide and b2M removed, then reconstituted with test peptide and fresh b2M; also called A1; HLA A1
Experimental: as §1, §2

[3] = molecular target: T3, MHC class I allele A*0301 (bound via biotin to streptavidin-coated plate)
T3 construct: iTopia MHC class I monomer on the plate; placeholder peptide and b2M removed, then reconstituted with test peptide and fresh b2M; also called A3; HLA A3
Experimental: as §1, §2

[4] = molecular target: T4, MHC class I allele B*0702 (bound via biotin to streptavidin-coated plate)
T4 construct: iTopia MHC class I monomer on the plate; placeholder peptide and b2M removed, then reconstituted with test peptide and fresh b2M; also called B7; HLA B7
Experimental: as §1, §2

[5] = molecular target: T5, MHC class I molecule B*0702 (biotin (bound to streptavidin-coated plate))
T5 construct: iTopia monomer stripped of placeholder peptide and b2M, then reconstituted with test peptide and fresh b2M; also called B7; HLA-B7
Experimental: as §1, §2

[6] = molecular target: T6, MHC class I molecule A*0301 (biotin (bound to streptavidin-coated plate))
T6 construct: iTopia monomer stripped of placeholder peptide and b2M, then reconstituted with test peptide and fresh b2M; also called A3; HLA-A3
Experimental: as §1, §2

[7] = molecular target: T7, MHC class I molecule A*0201 (biotin (bound to streptavidin-coated plate))
T7 construct: iTopia monomer stripped of placeholder peptide and b2M, then reconstituted with test peptide and fresh b2M; also called A2; HLA-A2
Experimental: as §1, §2

[8] = molecular target: T8, MHC class I molecule A*0101 (biotin (bound to streptavidin-coated plate))
T8 construct: iTopia monomer stripped of placeholder peptide and b2M, then reconstituted with test peptide and fresh b2M; also called A1; HLA-A1
Experimental: as §1, §2

Row | Binder | % of positive control peptide binding [1] [%] | % of positive control peptide binding [2] [%] | % of positive control peptide binding [3] [%] | % of positive control peptide binding [4] [%] | binding, % of positive control peptide [5] | binding, % of positive control peptide [6] | binding, % of positive control peptide [7] | binding, % of positive control peptide [8]
1 | RRLELASNH [5T4 9 mer peptide 107 RRLELASNH] | 5 | 0 | 3 | 3 |  |  |  | 
2 | EDERQNRSF (also called Peptide No 94) [5T4 9 mer peptide 94 EDERQNRSF] | 2 | 0 | 4 | 4 |  |  |  | 
3 | NGTLAELQG [5T4 9-mer peptide 138 (NGTLAELQG)] |  |  |  |  | 0 % of positive control | 3 % of positive control | 9 % of positive control | 3 % of positive control
4 | NNSLVSLTY [5T4 9-mer peptide 122 (NNSLVSLTY)] |  |  |  |  | 0 % of positive control | 4 % of positive control | 12 % of positive control | 8 % of positive control
5 | AGRALQGLR (also called Peptide No 103) [5T4 9 mer peptide 103 AGRALQGLR] | 2 | 0 | 2 | 1 |  |  |  | 
6 | VSSSSPTSS (also called Peptide No 15) [5T4 9 mer peptide 15 VSSSSPTSS] | 9 | 3 | 2 | 2 |  |  |  | 
7 | ERQNRSFEG (also called Peptide No 95) [5T4 9 mer peptide 95 ERQNRSFEG] | 1 | 0 | 1 | 1 |  |  |  | 
8 | ESLHLEDNA [5T4 9-mer peptide 131 (ESLHLEDNA)] |  |  |  |  | 0 % of positive control | 0 % of positive control | 8 % of positive control | 2 % of positive control
9 | DNALKVLHN [5T4 9-mer peptide 134 (DNALKVLHN)] |  |  |  |  | 0 % of positive control | 0 % of positive control | 5 % of positive control | 1 % of positive control
10 | LDLSNNSLV (also called Peptide No 120) [5T4 9 mer peptide 120 LDLSNNSLV] | 42 | 7 | 3 | 3 |  |  |  | 
11 | IRVFLDNNP [5T4 9-mer peptide 144 (IRVFLDNNP)] |  |  |  |  | 5 % of positive control | 3 % of positive control | 4 % of positive control | 0 % of positive control
12 | IVPPEDERQ (also called Peptide No 92) [5T4 9 mer peptide 92 IVPPEDERQ] | 12 | 6 | 3 | 3 |  |  |  | 
13 | PHIRVFLDN [5T4 9-mer peptide 143 (PHIRVFLDN)] |  |  |  |  | 10 % of positive control | 3 % of positive control | 2 % of positive control | 0 % of positive control
14 | LPRDVLAQL [5T4 9 mer peptide 113 LPRDVLAQL] | 10 | 3 | 3 | 79 |  |  |  | 
15 | HLESLHLED [5T4 9-mer peptide 130 (HLESLHLED)] |  |  |  |  | 2 % of positive control | 2 % of positive control | 3 % of positive control | 4 % of positive control
16 | PPEDERQNR (also called Peptide No 93) [5T4 9 mer peptide 93 PPEDERQNR] | 2 | 0 | 0 | 0 |  |  |  | 
17 | RDVLAQLPS [5T4 9 mer peptide 114 RDVLAQLPS] | 15 | 1 | 3 | 4 |  |  |  | 

Row | Binder | % of positive control peptide binding [1] [%] | % of positive control peptide binding [2] [%] | % of positive control peptide binding [3] [%] | % of positive control peptide binding [4] [%] | binding, % of positive control peptide [5] | binding, % of positive control peptide [6] | binding, % of positive control peptide [7] | binding, % of positive control peptide [8]
18 | NNPWVCDCH [5T4 9-mer peptide 147 (NNPWVCDCH)] |  |  |  |  | 4 % of positive control | 16 % of positive control | 0 % of positive control | 0 % of positive control
19 | VVAALLAGR (also called Peptide No 100) [5T4 9 mer peptide 100 VVAALLAGR] | 11 | 9 | 49 | 7 |  |  |  | 
20 | NHIVPPEDE (also called Peptide No 91) [5T4 9 mer peptide 91 NHIVPPEDE] | 11 | 6 | 3 | 5 |  |  |  | 
21 | SSAPFLASA (also called Peptide No 22) [5T4 9 mer peptide 22 SSAPFLASA] | 85 | 6 | 1 | 7 |  |  |  | 
22 | SSSPTSSAS (also called Peptide No 16) [5T4 9 mer peptide 16 SSSPTSSAS] | 7 | 4 | 2 | 8 |  |  |  | 
23 | LHLEDNALK [5T4 9-mer peptide 132 (LHLEDNALK)] |  |  |  |  | 0 % of positive control | 5 % of positive control | 4 % of positive control | 4 % of positive control
24 | VSAPSPLVE (also called Peptide No 85) [5T4 9 mer peptide 85 VSAPSPLVE] | 13 | 3 | 7 | 3 |  |  |  | 
25 | SFRNLTHLE [5T4 9-mer peptide 127 (SFRNLTHLE)] |  |  |  |  | 0 % of positive control | 1 % of positive control | 1 % of positive control | 1 % of positive control
26 | LTYVSFRNL [5T4 9-mer peptide 125 (LTYVSFRNL)] |  |  |  |  | 58 % of positive control | 20 % of positive control | 25 % of positive control | 28 % of positive control
27 | LDNNPWVCD [5T4 9-mer peptide 146 (LDNNPWVCD)] |  |  |  |  | 3 % of positive control | 2 % of positive control | 0 % of positive control | 0 % of positive control
28 | LASNHFLYL [5T4 9 mer peptide 109 LASNHFLYL] | 78 | 26 | 18 | 49 |  |  |  | 
29 | ILNHIVPPE (also called Peptide No 90) [5T4 9 mer peptide 90 ILNHIVPPE] | 63 | 5 | 4 | 7 |  |  |  | 
30 | AELQGLPHI [5T4 9-mer peptide 140 (AELQGLPHI)] |  |  |  |  | 0 % of positive control | 1 % of positive control | 9 % of positive control | 0 % of positive control
31 | GMVVAALLA (also called Peptide No 99) [5T4 9 mer peptide 99 GMVVAALLA] | 71 | 0 | 0 | 0 |  |  |  | 
32 | AALLAGRAL [5T4 9 mer peptide 101 AALLAGRAL] | 38 | 1 | 0 | 59 |  |  |  | 
33 | SPTSSASSF (also called Peptide No 17) [5T4 9 mer peptide 17 SPTSSASSF] | 4 | 2 | 0 | 62 |  |  |  | 
